PMC13469128

Assays:
CD47 (Homo sapiens) = CD47 (Homo sapiens) (UniProt Q08722); conditions: cited from earlier work
CD47 (Mus musculus) = CD47 (Mus musculus) (UniProt Q61735); conditions: cited from earlier work
[1] = target: human CD47 on cells (human (endogenous in HCT116, MDA-MB-468, OVCAR3, HUVEC, C5120)) (UniProt Q08722)

Sequence of SIRPα-Fc (P78324 31-373): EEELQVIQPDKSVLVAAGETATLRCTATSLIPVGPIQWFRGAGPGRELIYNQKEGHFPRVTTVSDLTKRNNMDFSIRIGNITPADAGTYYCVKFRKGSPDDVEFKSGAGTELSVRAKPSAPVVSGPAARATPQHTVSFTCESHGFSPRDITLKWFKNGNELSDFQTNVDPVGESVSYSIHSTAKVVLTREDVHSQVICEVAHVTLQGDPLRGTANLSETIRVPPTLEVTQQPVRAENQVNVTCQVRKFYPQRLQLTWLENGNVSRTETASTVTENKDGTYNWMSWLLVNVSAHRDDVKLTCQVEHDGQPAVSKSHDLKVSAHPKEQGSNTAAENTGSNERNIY
Sequence of UniProt Q61735 (Q61735 19-303): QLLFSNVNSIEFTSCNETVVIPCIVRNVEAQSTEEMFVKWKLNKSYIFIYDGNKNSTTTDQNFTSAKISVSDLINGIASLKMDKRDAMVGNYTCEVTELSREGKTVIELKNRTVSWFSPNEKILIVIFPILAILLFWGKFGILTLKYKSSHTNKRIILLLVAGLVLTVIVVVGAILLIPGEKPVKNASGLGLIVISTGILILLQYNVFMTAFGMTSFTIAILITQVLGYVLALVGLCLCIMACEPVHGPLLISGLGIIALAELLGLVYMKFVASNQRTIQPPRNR

macrophage ADCP on-chip of MDA-MB-468 cells, fold increase over the background; AdV delivery of SIRPα-Fc alone (blocks the CD47-SIRPα axis) [1] | Substance | Kd (CD47 (Homo sapiens)) | Kd (CD47 (Mus musculus))
 | SIRPα-Fc (from UniProt P78324) | 1 nM | 58 nM
1.7 fold | SIRPα-Fc fusion protein |  | 
